Where “and” joins values, the source holds several entries; their conditions need not be identical. Equal entries are not always repeated. One block for each binder: values may come before it.
What was measured:
M1 (linear) GST-Ub2 = M1 (linear) GST-Ub2 (UniProt P0CG48); test: BLI
SEC-MALS = biological target: the molecule itself; test: SEC-MALS

- Kd (M1 (linear) GST-Ub2): 1.6 µM
Binder: ESLVECPKCNIQYPATEHRDLLVHVEYCSK [Strep-tag II CEP55 ZF (StrepII-tag version of CEP55 ZF peptide, residues 435–464)]

- fold reduction of binding affinity against WT (M1 (linear) GST-Ub2): 26 fold
Binder: ESLVECPKCNIQYPATEHRDLLVHVAYCSK [StrepII-tag version of CEP55 ZF mutant E460A]

B1: CEP55 His-NOA (His-tag version of the human CEP55 NOA fragment, residues 304–396) (domain or fragment)
chain: IQKLREENDIARGKLEEEKKRSEELLSQVQFLYTSLLKQQEEQTRVALLEQQMQACTLDFENEKLDRQHVQHQLHVILKELRKARNQITQLES
- fold weaker dimerization affinity than NEMO NOA (SEC-MALS): 6 fold
- stoichiometry N (SEC-MALS): 2 and 6
